Experimental data published in patent publication USRE50957E1, “Molecular rheostat for cofactor balance” (The Regents of the University of California, priority 2016, dated 2026).
Where a chain is given by its changes, count along the chain named. Numbers in names are those of the source.

B1: G. stearothermophilus glyceraldehyde-3-phosphate dehydrogenase (GsGap, gapDH WT), wild type, SEQ ID NO:6 (Geobacillus stearothermophilus) (protein)
chain: MAVKVGINGFGRIGRNVFRAALKNPDIEVVAVNDLTDANTLAHLLKYDSVHGRLDAEVSVNGNNLVVNGKEIIVKAERDPENLAWGEIGVDIVVESTGRFTKREDAAKHLEAGAKKVIISAPAKNEDITIVMGVNQDKYDPKAHHVISNASCTTNCLAPFAKVLHEQFGIVRGMMTTVHSYTNDQRILDLPHKDLRRARAAAESIIPTTTGAAKAVALVLPELKGKLNGMAMRVPTPNVSVVDLVAELEKEVTVEEVNAALKAAAEGELKGILAYSEEPLVSRDYNGSTVSSTIDALSTMVIDGKMVKVVSWYDNETGYSHRVVDLAAYIASKGL
B2: G. stearothermophilus glyceraldehyde-3-phosphate dehydrogenase (GsGap) mutant mGapDH (mGap, gapDH M6), D34A/L35R/T36K relative to SEQ ID NO:6 (Geobacillus … (protein)
chain: B1 chain with D34A, L35R, T36K

Key:
[1] = substrate: NC(=O)c1ccc[n+]([C@@H]2O[C@H](COP(=O)([O-])OP(=O)(O)OC[C@H]3O[C@@H](n4cnc5c(N)ncnc54)[C@H](OP(=O)(O)O)[C@@H]3O)[C@@H](O)[C@H]2O)c1; test: purified protein, by the assay type; conditions: other: gapDH WT, cofactor, 50 mM tris pH 7.5, 340 nm
[2] = substrate: NC(=O)c1ccc[n+]([C@@H]2O[C@H](COP(=O)([O-])OP(=O)(O)OC[C@H]3O[C@@H](n4cnc5c(N)ncnc54)[C@H](OP(=O)(O)O)[C@@H]3O)[C@@H](O)[C@H]2O)c1; test: Kinetics and cofactor specificity of triple mutant mGap (mGapDH); type: biochemical, G. stearothermophilus ATCC12980; conditions: other: mGapDH, cofactor, 50 mM tris pH 7.5, 340 nm
Method: Enzyme activity and optimization. All of the enzymes used in this work were assayed. The enzymes were assayed in 50 mM tris buffer pH 7.5, 5 mM MgCl, and 5 mM KCl which mirrors the final reaction conditions. The activity of NAD(P)H producing or consuming reactions were monitored at 340 nm. The activity of ATP consuming enzymes were monitored using a coupled assay with Zwf and NADP^+ at 340 nm.
To implement the “molecular rheostat” module, GapDH enzyme was engineered that efficiently uses NADP^+. […] Although the cofactor specificity of GsGap has adjusted before by sequence-based design, the mutant only slightly preferred NADP^+ over NAD^+. To more strongly flip the cofactor specificity of GsGap the crystal structure was examined and basic residues introduced into the loop region proximate to the 2′OH of NAD′ that may help stabilize binding of a 2′ phosphate in NADP^+. A series of mutations were made altering residues D34, L35, and T36 of SEQ ID NO:6. The kinetics and specificity of the best enzyme, a D34A/L35R/T36K triple mutant (herein referred to as mGap), were obtained.

Protein | Km [1] [µM] | Km [2] [µM]
B1 | 1500 ± 500 | 
B2 |  | 300 ± 40
